Consider one molecule from PMC4176333.

The target of data set [1] is T1, Hera_core (UniProt Q72GF3 1-365).
T1 sequence: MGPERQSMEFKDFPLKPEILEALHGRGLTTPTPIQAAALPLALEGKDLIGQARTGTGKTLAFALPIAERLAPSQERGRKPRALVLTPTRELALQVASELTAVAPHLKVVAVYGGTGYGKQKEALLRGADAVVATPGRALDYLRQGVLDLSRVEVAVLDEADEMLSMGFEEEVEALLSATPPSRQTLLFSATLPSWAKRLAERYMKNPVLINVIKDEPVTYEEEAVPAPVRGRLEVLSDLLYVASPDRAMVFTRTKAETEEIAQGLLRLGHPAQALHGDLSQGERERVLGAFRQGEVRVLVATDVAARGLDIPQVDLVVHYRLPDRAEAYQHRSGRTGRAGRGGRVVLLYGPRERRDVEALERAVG
The data set can be described thus: fluorescence intensity titration.

A further data set concerns the target T2, YxiN RecA_N (UniProt P42305 1-206).
T2 sequence: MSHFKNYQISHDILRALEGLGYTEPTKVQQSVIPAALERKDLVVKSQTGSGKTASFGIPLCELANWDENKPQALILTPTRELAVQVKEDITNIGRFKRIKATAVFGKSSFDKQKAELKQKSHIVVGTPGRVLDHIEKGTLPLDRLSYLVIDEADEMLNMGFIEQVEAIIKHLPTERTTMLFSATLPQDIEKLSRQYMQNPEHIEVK
The data set can be described thus: fluorescence anisotropy. A general note: Fluorescence polarisation rises when a labelled molecule tumbles more slowly, as on binding a larger partner.

The target in the next data set is T3, YxiN RecA_C (UniProt P42305 211-370).
T3 sequence: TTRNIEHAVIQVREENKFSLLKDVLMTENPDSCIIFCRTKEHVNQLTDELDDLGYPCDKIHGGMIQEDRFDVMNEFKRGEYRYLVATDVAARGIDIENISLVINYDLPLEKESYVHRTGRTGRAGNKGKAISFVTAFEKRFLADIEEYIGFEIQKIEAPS
The data set is described as follows: fluorescence anisotropy.

Another data set addresses T4, Hera RecA_C (UniProt Q72GF3 208-369).
T4 sequence: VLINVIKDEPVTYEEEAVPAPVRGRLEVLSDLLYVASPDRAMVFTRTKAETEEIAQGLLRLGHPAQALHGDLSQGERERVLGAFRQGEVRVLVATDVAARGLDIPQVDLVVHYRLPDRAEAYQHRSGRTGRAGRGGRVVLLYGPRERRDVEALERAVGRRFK
The data set can be described thus: fluorescence intensity titration.

In a further data set the target is T5, Hera RecA_N (UniProt Q72GF3 1-207).
T5 sequence: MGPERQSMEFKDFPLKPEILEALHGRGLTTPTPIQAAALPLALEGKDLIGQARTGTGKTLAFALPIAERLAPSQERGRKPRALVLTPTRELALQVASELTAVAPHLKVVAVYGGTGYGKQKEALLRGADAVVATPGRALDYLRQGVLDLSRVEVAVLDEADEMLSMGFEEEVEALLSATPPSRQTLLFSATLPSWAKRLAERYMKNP
The data set can be described thus: fluorescence intensity titration.

In data set [2] the target is T1, Hera_core. The data set can be described thus: fluorescence intensity titration. The source holds these as a separate data set.
For a further data set, the target named is T6, YxiN_core (UniProt P42305 1-368).
T6 sequence: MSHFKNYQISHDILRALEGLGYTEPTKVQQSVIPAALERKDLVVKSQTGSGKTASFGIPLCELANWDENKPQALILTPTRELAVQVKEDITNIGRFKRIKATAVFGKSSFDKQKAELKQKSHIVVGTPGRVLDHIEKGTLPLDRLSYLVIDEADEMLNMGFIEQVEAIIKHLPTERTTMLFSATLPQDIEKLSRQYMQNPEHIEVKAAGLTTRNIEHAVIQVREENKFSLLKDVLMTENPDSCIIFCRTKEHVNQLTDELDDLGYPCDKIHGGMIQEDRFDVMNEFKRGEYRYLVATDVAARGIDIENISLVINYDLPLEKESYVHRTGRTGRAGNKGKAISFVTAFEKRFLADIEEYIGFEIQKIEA
The data set can be described thus: fluorescence intensity titration.

Read-outs that look alike come from different tables or passages of the source.

A word on the Kd: it is the equilibrium constant for the complex coming apart. A higher Kd goes with a looser complex.

B1: 14mer dsRNA (dsRNA)
RNA 1: GGGCGGGCCCGCCC
RNA 2: GGGCGGGCCCGCCC
Turning to B1, the Kd came out at 15.1 nM with Hera_core [1]; 327 ± 161 nM with Hera RecA_C; 889 ± 236 nM with Hera RecA_N; 7 ± 3 nM with Hera_core [2]; 2 nM in the data set with YxiN_core. Also, the binding result with YxiN RecA_N and with YxiN RecA_C was “no binding” throughout.
